From article PMC9897464 (2022) come the findings set out here.

Test [1] deals with biotinylated Cg1735ΔCD (residues 20 to 386) (Corynebacterium glutamicum ATCC13032). Put plainly: BLI; biotinylated Cg1735ΔCD immobilised on streptavidin biosensors; Cg1735CD 20 to 0.3125 μM or Cg1604 200 to 3.125 μM; 25 °C; HEPES 25 mM pH 7.5, NaCl 150 mM, glycerol 5%, BSA 1 mg/mL; steady-state, one-site model; apparent Kd. Background: In BLI a coated tip is dipped into the sample, and binding shifts an interference pattern.

The target in test [2] is T1, biotinylated Cg1735ΔCD (residues 20 to 386) (Corynebacterium glutamicum ATCC13032, biotin (EZ-Link NHS-PEG4-Biotin, 20 molar excess; sites not stated)).
T1 chain: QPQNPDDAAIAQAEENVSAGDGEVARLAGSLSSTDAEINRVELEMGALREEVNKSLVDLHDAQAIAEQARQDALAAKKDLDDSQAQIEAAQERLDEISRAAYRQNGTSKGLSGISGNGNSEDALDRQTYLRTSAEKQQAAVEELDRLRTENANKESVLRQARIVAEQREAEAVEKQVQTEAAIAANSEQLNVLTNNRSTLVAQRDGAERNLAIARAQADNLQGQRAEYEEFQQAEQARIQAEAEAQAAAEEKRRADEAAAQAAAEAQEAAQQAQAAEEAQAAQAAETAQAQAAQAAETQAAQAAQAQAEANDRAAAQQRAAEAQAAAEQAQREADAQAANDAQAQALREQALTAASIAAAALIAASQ
As to the kind of experiment: BLI.

The target of test [3] is His_SUMO_Cg1735CC1 (CC1 domain, residues 20 to 238) (Corynebacterium glutamicum ATCC13032). As to the kind of experiment: BLI; His_SUMO_Cg1735CC1 immobilised on Ni-NTA biosensors; Cg1735CD 20 to 0.3125 μM; 25 °C; HEPES 25 mM pH 7.5, NaCl 150 mM, glycerol 5%, BSA 1 mg/mL; steady-state, one-site model; apparent Kd.

For the molecule “Cg1604 (globular periplasmic domain, residues 36 to 295) (domain or fragment)”, the Kd in test [1] was found to be 56000 nM.

B1: Cg1735CD (catalytic domain, residues 460 to 600) (domain or fragment)
chain: DRSAQIETVIARAMSQLGVQYAWGGGNANGPTLGIRDGGVADSYGDYNKVGFDCSGLTLYAFAGVGISLPHYTGYQYQHGTKVSPSEMQRGDLIFYGPGASQHVAIYLGDGQMIEAPNSGSVVKISPVRWSGMTESVVRLI
As for B1, the Kd in test [2] is 1900 nM; in test [3], 1200 nM.
